Experimental data reported in PMC10097598, “Cryo-EM structure of the transposon-associated TnpB enzyme”.

Target: T1, TnpB (ISDra2) (Deinococcus radiodurans (ISDra2), UniProt Q7DF80 1-408)
T1 sequence: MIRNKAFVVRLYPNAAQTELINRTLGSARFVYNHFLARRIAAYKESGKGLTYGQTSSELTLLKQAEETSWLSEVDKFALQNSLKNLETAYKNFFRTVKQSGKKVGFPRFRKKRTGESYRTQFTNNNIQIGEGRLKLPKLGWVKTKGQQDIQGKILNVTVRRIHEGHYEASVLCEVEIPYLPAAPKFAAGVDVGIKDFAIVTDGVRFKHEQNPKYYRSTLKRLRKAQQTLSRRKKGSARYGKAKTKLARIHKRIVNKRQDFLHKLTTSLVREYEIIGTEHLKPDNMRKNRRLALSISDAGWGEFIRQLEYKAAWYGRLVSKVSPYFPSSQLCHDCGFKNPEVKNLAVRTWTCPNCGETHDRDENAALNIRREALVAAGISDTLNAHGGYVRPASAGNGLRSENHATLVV
Assay: co-purification (urea-PAGE, northern blot); bound RNA is 5'-processed, 100-160 nt; Ternary complex: TnpB–ωRNA + target DNA, room temperature 30 min; SEC in 20 mM Tris-HCl pH 8.0, 150 mM NaCl, 2 mM MgCl2, 10 uM ZnCl2, 1 mM DTT. Copurification:
Details: protein: recombinant; tags: N-terminal MBP, removed with HRV3C; pseudoknot, stems 1-3, triple helix

B1: ωRNA full length (as co-expressed) (structured_RNA)
RNA: GAUUCAAGAAUCCCGAAGUGAAGAAUCUUGCCGUCCGUACAUGGACUUGCCCGAACUGUGGGGAAACCCAUGACCGAGACGAGAACGCUGCGCUGAACAUUCGGCGUGAAGCGUUGGUGGCUGCGGGAAUCUCAGACACCUUAAACGCUCAUGGAGGCUAUGUCAGACCUGCUUCGGCGGGCAAUGGUCUGCGAAGUGAGAAUCACGCGACUUUAGUCGUGUGAGGUUCAAGAGUCCCUUGGCGCCC
  binding result: binds
